Source: patent publication US20100322946A1 (Genentech, published 2010)
Substitutions are numbered along the chain they refer to. Values joined by “and” are separate entries in the source; they are usually repeats but may differ in a detail not shown here. Identical values can stand only once. Like-named read-outs stand apart in the source and are kept apart here.

Key:
human VEGF109 [1] = molecular target: T1, human VEGF109 (human, UniProt P15692 214-315, limits assumed); assay: BIAcore SPR
T1 construct: also called hVEGF109
T1 sequence (looked up): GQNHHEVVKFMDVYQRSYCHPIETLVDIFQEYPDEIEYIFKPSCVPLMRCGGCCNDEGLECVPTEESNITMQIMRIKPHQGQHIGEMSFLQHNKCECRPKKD

[2] = molecular target: T2, murine VEGF (form not stated) (mouse, UniProt Q00731-2 27-190); assay: BIAcore SPR, mVEGF108
T2 construct: also called mVEGF
T2 sequence (looked up): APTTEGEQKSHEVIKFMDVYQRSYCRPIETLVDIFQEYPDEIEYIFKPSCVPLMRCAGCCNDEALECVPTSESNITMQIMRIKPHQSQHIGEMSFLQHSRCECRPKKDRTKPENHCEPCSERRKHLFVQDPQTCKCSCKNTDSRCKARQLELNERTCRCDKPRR

[3] = molecular target: T3, human VEGF (form not stated) (human, UniProt P15692-4 27-191); assay: competitive phage ELISA
T3 construct: also called hVEGF; hVEGF-A

[4] = molecular target: T3, human VEGF (form not stated); assay: competitive phage ELISA; remark: listed apart in the source
[5] = molecular target: T4, HER2 extracellular domain (human, UniProt P04626 23-652); assay: competition ELISA of phage-displayed Fab
T4 construct: extracellular domain; also called HER2-ECD; Her2-ECD

human VEGF109 [6] = molecular target: T1, human VEGF109; assay: BIAcore SPR, steady state analysis
[7] = molecular target: T4, HER2 extracellular domain; assay: BIAcore SPR
[8] = molecular target: T4, HER2 extracellular domain; assay: competitive phage ELISA
[9] = molecular target: T3, human VEGF (form not stated); assay: competitive phage ELISA; remark: listed apart in the source
[10] = molecular target: T4, HER2 extracellular domain; assay: Her2 in solution (varied) against DR5 coat
[11] = molecular target: T5, VEGF109 (receptor-binding domain of human VEGF, residues 8-109) (human, UniProt P15692 214-315); assay: calculated from the SPR KD
T5 construct: also called hVEGF109
T5 sequence (looked up): T1 sequence (looked up)

[12] = molecular target: T5, VEGF109 (receptor-binding domain of …); assay: isothermal titration calorimetry
[13] = molecular target: T5, VEGF109 (receptor-binding domain of …); assay: calculated from ΔCp
[14] = molecular target: T5, VEGF109 (receptor-binding domain of …); assay: calculated from ΔStot, ΔSdesolv and ΔSrt
human VEGF109 [15] = molecular target: T1, human VEGF109; assay: SPR, captured IgG, antigen in solution, 30°C
HER3 ECD = molecular target: T6, HER3 ECD; assay: ELISA: antigen immobilized, hIgG 15 µg/mL, OD450; bars assigned by their left-to-right order
T6 construct: also called ErbB3/HER3 extracellular domain

human death receptor 5 = molecular target: T7, human death receptor 5 (human, UniProt O14763 56-210); assay: as above
T7 construct: also called hDR5; DR5

hVEGF-C [16] = molecular target: T8, hVEGF-C (human, UniProt P49767 103-227); assay: as above
T8 construct: also called vascular endothelial growth factor C
T8 sequence (looked up): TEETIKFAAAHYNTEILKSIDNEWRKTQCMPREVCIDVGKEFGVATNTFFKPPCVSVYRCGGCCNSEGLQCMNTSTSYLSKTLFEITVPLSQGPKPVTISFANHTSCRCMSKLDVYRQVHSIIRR

[17] = molecular target: T9, epidermal growth factor receptor extracellular domain (human, UniProt P00533 25-645); assay: as above
T9 construct: extracellular domain; also called hEGFR

bovine serum albumin = molecular target: T10, bovine serum albumin (bovine, UniProt P02769 25-607); assay: as above
T10 construct: also called BSA

hVEGF-D [18] = molecular target: T11, hVEGF-D (human, UniProt O43915 93-201); assay: as above
T11 construct: also called vascular endothelial growth factor D
T11 sequence (looked up): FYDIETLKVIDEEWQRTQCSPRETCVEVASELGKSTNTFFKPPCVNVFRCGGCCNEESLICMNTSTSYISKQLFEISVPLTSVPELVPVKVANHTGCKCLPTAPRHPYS

hVEGF-C [19] = molecular target: T8, hVEGF-C; assay: ELISA
hVEGF-D [20] = molecular target: T11, hVEGF-D; assay: ELISA

B1: 3_7 Fab (Fab, V domains shown)
VH: not shown
VL: DIQMTQSPSSLSASVGDRVTITCRASQYIWRYVAWYQQKPGKAPKLLIYWGSSLYSGVPSRFSGSGSGTDFTLTISSLQPEDFATYYCQQGLWYSPPTFGQGTKVEIK
Kd (human VEGF109 [1]): 3 nM
koff (human VEGF109 [1]): 0.0025 s⁻¹
kon (human VEGF109 [1]): 800000 M⁻¹ s⁻¹
Kd [2]: 78 nM
koff [2]: 0.0056 s⁻¹
kon [2]: 72000 M⁻¹ s⁻¹

B2: 3-4 (phage) (scFv, V domains shown, not shown: large carriers; small tags and cut ends)
VH: not shown
VL: B1 VL with Y28E, I29V, W30Y, R31S, W50P, G51A, L92F, Y94I, S95G
notes: also called c3-4
IC50 [3]: 32 nM

B3: 3-7 (phage) (scFv, V domains shown, not shown: large carriers; small tags and cut ends)
VH: not shown
VL: B1 VL
IC50 [3]: 16 nM

B4: H7 (scFv, V domains shown)
VH: not shown
VL: B1 VL with Y28N, I29V, R31D, Y32W, W50P, G51A, L92W, W93Y, Y94I, S95A
notes: not shown: scFv linker carrying the gD tag and the phage coat fusion
IC50 [4]: 60 nM

B5: 3-7 hIgG (antibody, V domains shown)
VH: not shown
VL: B1 VL
notes: also called 3-7 anti-hVEGF
Kd (human VEGF109 [1]): 7 nM
koff (human VEGF109 [1]): 0.0042 s⁻¹
kon (human VEGF109 [1]): 580000 M⁻¹ s⁻¹
Kd [2]: 30 nM
koff [2]: 0.015 s⁻¹
kon [2]: 500000 M⁻¹ s⁻¹

B6: 35.74 (Fab, V domains shown)
VH: not shown
VL: DIQMTQSPSSLSASVGDRVTITCRAIQDIPKTITGYVAWYQQKPGKAPKLLIYWGSFLYSGVPSRFSGSGSGTDFTLTISSLQPEDFATYYCQQHFNSPPKFGQGTKVEIK
IC50 [5]: 0.7 nM

B7: H4_N (bispecific antibody, V domains shown)
VH: not shown
VL: DIQMTQSPSSLSASVGDRVTITCRASQNIRSGSVAWYQQKPGKAPKLLIYWASYLYSGVPSRFSGSGSGTDFTLTISSLQPEDFATYYCQQHYTTPPTFGQGTKVEIK
notes: also called H4_N hIgG; H4_N Fab
Kd (human VEGF109 [6]): 550 nM
Kd [7]: 9.87 nM and 6 nM
koff [7]: 0.0013 s⁻¹
kon [7]: 140000 M⁻¹ s⁻¹ and 230000 M⁻¹ s⁻¹

B8: H4 (phage) (scFv, V domains shown)
VH: not shown
VL: B7 VL with S31T, A52G
IC50 [8]: 0.54 nM
IC50 [9]: 115 nM

B9: D1 hIgG (bispecific antibody, V domains shown)
VH: not shown
VL: DIQMTQSPSSLSASVGDRVTITCRASQNVSKHVAWYQQKPGKAPKLLIYWGSYLYSGVPSRFSGSGSGTDFTLTISSLQPEDFATYYCQQSYSGPPTFGQGTKVEIK
notes: also called D1 (anti-hDR5/Her2)
IC50 (read off the curve) [10]: ~50 nM

B10: 20.49 (Fab, V domains shown)
VH: not shown
VL: DIQMTQSPSSLSASVGDRVTITCRASVDLPKSVSGYVAWYQQKPGKAPKLLIYWGSFLYSGVPSRFSGSGSGTDFTLTISSLQPEDFATYYCQQHFTSPPTFGQGTKVEIKR
IC50 [5]: 2.6 nM

B11: 35.95 (Fab, V domains shown)
VH: not shown
VL: B10 VL with S26I, V27E, D28N, F96Y
IC50 [5]: 4.3 nM

B12: bH1-44 Fab (Fab, V domains shown)
VH: EVQLVESGGGLVQPGGSLRLSCAASGFNISGTYIHWVRQAPGKGLEWVARIYPSEGYTRYADSVKGRFTISADTSKNTAYLQMNSLRAEDTAVYYCSRWVGVGFYAMDYWGQGTLVTVSS
VL: B10 VL with V27Q, D28N, L29I, P30A, S32T, V33I, F96Y, T97S
notes: also called bH-44
ΔG [11]: -11.8 kcal/mol
ΔH [12]: -7.1 kcal/mol
ΔSdesolv [13]: 9.6e-05 kcal/mol
ΔSconf [14]: -7.2e-05 kcal/mol

B13: bH1-81 IgG (bispecific antibody, V domains shown)
VH: not shown
VL: B10 VL with V27Q, D28N, L29I, P30A, S32T, V33I, F96Y, T97S
notes: also called bH1-81 antibody; not shown: rest of the human IgG heavy-chain constant region
Kd (human VEGF109 [15]): 41 nM
binding result (HER3 ECD): no binding (tested: 15 µg/mL)
binding result (human death receptor 5): no binding (tested: 15 µg/mL)
binding result (hVEGF-C [16]): no binding (tested: 15 µg/mL)
binding result [17]: no binding (tested: 15 µg/mL)
binding result (bovine serum albumin): no binding (tested: 15 µg/mL)
binding result (hVEGF-D [18]): no binding (tested: 15 µg/mL)

B14: 20.80 (Fab, V domains shown)
VH: not shown
VL: B10 VL with V27E, L29I, V33I, T97S
IC50 [5]: 2.2 nM

B15: 35.45 (Fab, V domains shown)
VH: not shown
VL: B10 VL with V27E, L29I, S32T, T97S
IC50 [5]: 1.1 nM

B16: 3-1 (Table 2) (Fab, V domains shown)
VH: not shown
VL: DIQMTQSPSSLSASVGDRVTITCRASQNVWDWVAWYQQKPGKAPKLLIYPASSLYSGVPSRFSGSGSGTDFTLTISSLQPEDFATYYCQQGWYIAPPTFGQGTKVEIKR
notes: also called 3-1 Fab
binding result [7]: no binding
Kd [2]: 105 nM
koff [2]: 0.0036 s⁻¹

B17: 3-1 hIgG (antibody, V domains shown)
VH: not shown
VL: B16 VL
notes: also called 3-1 IgG; not shown: rest of the human IgG heavy-chain constant region
binding result (hVEGF-C [19]): no binding
binding result (hVEGF-D [20]): no binding
binding result [7]: no binding
binding result (human death receptor 5): no binding (tested: 15 µg/mL)
binding result [17]: no binding (tested: 15 µg/mL)
binding result (bovine serum albumin): no binding (tested: 15 µg/mL)
Kd [2]: 44 nM
koff [2]: 0.016 s⁻¹
